{"source": "paper PMC5413910", "origin": "cited, not measured here", "molecular_target": "linear (Met1-linked) diubiquitin (Homo sapiens) (UniProt P0CG48)"}
{"substance": "OTULIN (from UniProt Q96BN8)", "values": [{"measurement": "Kd", "result": 150, "unit": "nM"}]}
